In patent US20220340666A1 (NEW YORK UNIVERSITY, published 2022):

Legend:
[1] = molecular target: T1, human Galectin-9 CRD1 (residues 1-148), biotinylated (human, UniProt O00182 1-148, biotinylated in vitro with BirA (Avitag)); assay: phage ELISA, phage-displayed Fab on biotinylated CRD
T1 construct: Made as GST fusion, GST cleaved off with thrombin, gel filtered, biotinylated; not shown: Avitag upstream of the cloned gene (pGEX vector), left after thrombin cleavage from GST

[2] = molecular target: T1, human Galectin-9 CRD1 (residues 1-148), …; assay: bead-based binding assay, flow cytometry
Experimental: The affinities of the antibodies were assessed using a bead-based assay as previously described (Nishikori et al., J Mol Biol, 2012, 424, 391-399) and surface plasmon resonance (SPR). In the bead-based assay, a biotinylated protein (either a Galectin-9 sample or a Fab sample) was immobilized on streptavidin-coated Dynabeads M280 via the biotin-streptavidin interaction. After blocking the excess biotin-binding sites on the beads using unconjugated biotin, binding titration was performed by incubating the second component (i.e., Fab for immobilized Galectin-9 or vice versa), followed by quantification using a dye-labeled neutravidin (ThermoFisher) and flow cytometry analysis. In experiments where the second component is an IgG, a dye-labeled anti-human IgG or anti-mouse IgG antibody was used for detection.

T1 sequence (O00182 1-148): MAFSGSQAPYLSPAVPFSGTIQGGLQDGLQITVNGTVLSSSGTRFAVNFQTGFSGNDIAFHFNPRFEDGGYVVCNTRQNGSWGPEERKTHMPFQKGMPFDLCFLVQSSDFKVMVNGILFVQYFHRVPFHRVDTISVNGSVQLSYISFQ

Binder | binding result [1] | Kd [2] [nM] | also measured
G9.1-11 Fab (Fab, V domains shown, Avitag at the C-terminus of the heavy chain, biotinylated when required) VH: EVQLVESGGGLVQPGGSLRLSCAASGFTVYSSSIHWVRQAPGKGLEWVASIYSYYGYTSYADSVKGRFTISADTSKNTAYLQMNSLRAEDTAVYYCARSTEGYDRWGYYSSYWSSGLDYWGQGTLVTVSS VL: DIQMTQSPSSLSASVGDRVTITCRASQSVSSAVAWYQQKPGKAPKLLIYSASSLYSGVPSRFSGSRSGTDFTLTISSLQPEDFATYYCQQTYWGLITFGQGTKVEIKR | binds | – | –
G9.1-4 Fab (Fab, V domains shown) VH: EVQLVESGGGLVQPGGSLRLSCAASGFTIYYSSIHWVRQAPGKGLEWVASISSSSGSTSYADSVKGRFTISADTSKNTAYLQMNSLRAEDTAVYYCARSYRPYSSYYWGMDYWGQGTLVTVSS VL: DIQMTQSPSSLSASVGDRVTITCRASQSVSSAVAWYQQKPGKAPKLLIYSASSLYSGVPSRFSGSRSGTDFTLTISSLQPEDFATYYCQQSSSSLITFGQGTKVEIKR | binds | – | –
G9.1-2 Fab (Fab, V domains shown) VH: EVQLVESGGGLVQPGGSLRLSCAASGFTISSSSIHWVRQAPGKGLEWVASISSYYGSTYYADSVKGRFTISADTSKNTAYLQMNSLRAEDTAVYYCARSWSSSFWYNWALDYWGQGTLVTVSS VL: DIQMTQSPSSLSASVGDRVTITCRASQSVSSAVAWYQQKPGKAPKLLIYSASSLYSGVPSRFSGSRSGTDFTLTISSLQPEDFATYYCQQWQWGYSLVTFGQGTKVEIKR | binds | – | –
G9.1-3 Fab (Fab, V domains shown) VH: EVQLVESGGGLVQPGGSLRLSCAASGFTIYSSSIHWVRQAPGKGLEWVAYIYSSSGYTSYADSVKGRFTISADTSKNTAYLQMNSLRAEDTAVYYCARYSHSSLYYSWIWALDYWGQGTLVTVSS VL: DIQMTQSPSSLSASVGDRVTITCRASQSVSSAVAWYQQKPGKAPKLLIYSASSLYSGVPSRFSGSRSGTDFTLTISSLQPEDFATYYCQQSWYSNKPITFGQGTKVEIKR | binds | – | –
G9.1-8m8 mIgG2a (antibody, V domains shown, also called G9.1-8mut8) VH: EVQLVESGGGLVQPGGSLRLSCAASGFTVSSSSIHWVRQAPGKGLEWVAYIYPYSGYTSYADSVKGRFTISADTSKNTAYLQMNSLRAEDTAVYYCARYSTYSSSKWVWGMDYWGQGTLVTVSS VL: DIQMTQSPSSLSASVGDRVTITCRASQSVSSAVAWYQQKPGKAPKLLIYSASSLYSGVPSRFSGSRSGTDFTLTISSLQPEDFATYYCQQSYYDSNPITFGQGTKVEIKR | – | 0.51 | –
G9.1-8m9 mIgG2a (antibody, V domains shown, also called G9.1-8mut9) VH: EVQLVESGGGLVQPGGSLRLSCAASGFTVSSSSIHWVRQAPGKGLEWVAYIYPYSGYTSYADSVKGRFTISADTSKNTAYLQMNSLRAEDTAVYYCARYSTYSSKWVWGMDYWGQGTLVTVSS VL: DIQMTQSPSSLSASVGDRVTITCRASQSVSSAVAWYQQKPGKAPKLLIYSASSLYSGVPSRFSGSRSGTDFTLTISSLQPEDFATYYCQQSYYDSNPITFGQGTKVEIKR | – | 0.71 | –
G9.1-8m9 Fab (Fab, V domains shown, Purified Fab; also called G9.1-8mut9) VH: EVQLVESGGGLVQPGGSLRLSCAASGFTVSSSSIHWVRQAPGKGLEWVAYIYPYSGYTSYADSVKGRFTISADTSKNTAYLQMNSLRAEDTAVYYCARYSTYSSKWVWGMDYWGQGTLVTVSS VL: DIQMTQSPSSLSASVGDRVTITCRASQSVSSAVAWYQQKPGKAPKLLIYSASSLYSGVPSRFSGSRSGTDFTLTISSLQPEDFATYYCQQSYYDSNPITFGQGTKVEIKR | – | 1.57 | –
G9.1-8m5 mIgG1 (antibody, V domains shown, Human/mouse hybrid IgG: CH1 and CL human, Fc mouse IgG1; also called G9.1-8mut5) VH: EVQLVESGGGLVQPGGSLRLSCAASGFTVSSSSIHWVRQAPGKGLEWVAYIYPYSGYTSYADSVKGRFTISADTSKNTAYLQMNSLRAEDTAVYYCARYSTYSWGGIGSSSSSMDYWGQGTLVTVSS VL: DIQMTQSPSSLSASVGDRVTITCRASQSVSSAVAWYQQKPGKAPKLLIYSASSLYSGVPSRFSGSRSGTDFTLTISSLQPEDFATYYCQQSYYDSNPITFGQGTKVEIKR | – | – | binding result [2]: no binding
G9.1-8m2 mIgG1 (antibody, V domains shown, Human/mouse hybrid IgG: CH1 and CL human, Fc mouse IgG1; also called G9.1-8mut2) VH: EVQLVESGGGLVQPGGSLRLSCAASGFTVSSSSIHWVRQAPGKGLEWVAYIYPYSSSSSYADSVKGRFTISADTSKNTAYLQMNSLRAEDTAVYYCARYSTYSWGGIGKWVWGMDYWGQGTLVTVSS VL: DIQMTQSPSSLSASVGDRVTITCRASQSVSSAVAWYQQKPGKAPKLLIYSASSLYSGVPSRFSGSRSGTDFTLTISSLQPEDFATYYCQQSYYDSNPITFGQGTKVEIKR | – | 6.51 | –
G9.1-8m3 mIgG1 (antibody, V domains shown, Human/mouse hybrid IgG: CH1 and CL human, Fc mouse IgG1; also called G9.1-8mut3) VH: EVQLVESGGGLVQPGGSLRLSCAASGFTVSSSSIHWVRQAPGKGLEWVAYIYPYSGYTSYADSVKGRFTISADTSKNTAYLQMNSLRAEDTAVYYCARSSSSSWGGIGKWVWGMDYWGQGTLVTVSS VL: DIQMTQSPSSLSASVGDRVTITCRASQSVSSAVAWYQQKPGKAPKLLIYSASSLYSGVPSRFSGSRSGTDFTLTISSLQPEDFATYYCQQSYYDSNPITFGQGTKVEIKR | – | – | binding result [2]: no binding
G9.1-8m1 mIgG1 (antibody, V domains shown, Human/mouse hybrid IgG: CH1 and CL human, Fc mouse IgG1; also called G9.1-8mut1) VH: EVQLVESGGGLVQPGGSLRLSCAASGFTVSSSSIHWVRQAPGKGLEWVASSSSSSGYTSYADSVKGRFTISADTSKNTAYLQMNSLRAEDTAVYYCARYSTYSWGGIGKWVWGMDYWGQGTLVTVSS VL: DIQMTQSPSSLSASVGDRVTITCRASQSVSSAVAWYQQKPGKAPKLLIYSASSLYSGVPSRFSGSRSGTDFTLTISSLQPEDFATYYCQQSYYDSNPITFGQGTKVEIKR | – | – | binding result [2]: no binding
G9.1-1 Fab (Fab, V domains shown) VH: EVQLVESGGGLVQPGGSLRLSCAASGFTFSSSSIHWVRQAPGKGLEWVASIYSSYGYTYYADSVKGRFTISADTSKNTAYLQMNSLRAEDTAVYYCARYYWGWSQNQGFWWYGLDYWGQGTLVTVSS VL: DIQMTQSPSSLSASVGDRVTITCRASQSVSSAVAWYQQKPGKAPKLLIYSASSLYSGVPSRFSGSRSGTDFTLTISSLQPEDFATYYCQQSWVGSLITFGQGTKVEIKR | binds | – | –

Further lines, with some results ahead:

binding result [1] | Kd [2] [nM] | Binder | also measured
– | 1.46 | G9.1-8m11 mIgG2a (antibody, V domains shown, also called G9.1-8mut11) VH: EVQLVESGGGLVQPGGSLRLSCAASGFTVSSSSIHWVRQAPGKGLEWVAYIYPYSGYTSYADSVKGRFTISADTSKNTAYLQMNSLRAEDTAVYYCARYSTYKWVWGMDYWGQGTLVTVSS VL: DIQMTQSPSSLSASVGDRVTITCRASQSVSSAVAWYQQKPGKAPKLLIYSASSLYSGVPSRFSGSRSGTDFTLTISSLQPEDFATYYCQQSYYDSNPITFGQGTKVEIKR | –
– | 58.4 | G9.1-8m10 Fab (Fab, V domains shown, Purified Fab; also called G9.1-8mut10) VH: EVQLVESGGGLVQPGGSLRLSCAASGFTVSSSSIHWVRQAPGKGLEWVAYIYPYSGYTSYADSVKGRFTISADTSKNTAYLQMNSLRAEDTAVYYCARYSTYSKWVWGMDYWGQGTLVTVSS VL: DIQMTQSPSSLSASVGDRVTITCRASQSVSSAVAWYQQKPGKAPKLLIYSASSLYSGVPSRFSGSRSGTDFTLTISSLQPEDFATYYCQQSYYDSNPITFGQGTKVEIKR | –
– | 52.7 | G9.1-8m11 Fab (Fab, V domains shown, Purified Fab; also called G9.1-8mut11) VH: EVQLVESGGGLVQPGGSLRLSCAASGFTVSSSSIHWVRQAPGKGLEWVAYIYPYSGYTSYADSVKGRFTISADTSKNTAYLQMNSLRAEDTAVYYCARYSTYKWVWGMDYWGQGTLVTVSS VL: DIQMTQSPSSLSASVGDRVTITCRASQSVSSAVAWYQQKPGKAPKLLIYSASSLYSGVPSRFSGSRSGTDFTLTISSLQPEDFATYYCQQSYYDSNPITFGQGTKVEIKR | –
– | 0.93 | G9.1-8m7 Fab (Fab, V domains shown, Purified Fab; also called G9.1-8mut7) VH: EVQLVESGGGLVQPGGSLRLSCAASGFTVSSSSIHWVRQAPGKGLEWVAYIYPYSGYTSYADSVKGRFTISADTSKNTAYLQMNSLRAEDTAVYYCARYSTYSSSSKWVWGMDYWGQGTLVTVSS VL: DIQMTQSPSSLSASVGDRVTITCRASQSVSSAVAWYQQKPGKAPKLLIYSASSLYSGVPSRFSGSRSGTDFTLTISSLQPEDFATYYCQQSYYDSNPITFGQGTKVEIKR | –
– | 0.56 | G9.1-8m8 Fab (Fab, V domains shown, Purified Fab; also called G9.1-8mut8) VH: EVQLVESGGGLVQPGGSLRLSCAASGFTVSSSSIHWVRQAPGKGLEWVAYIYPYSGYTSYADSVKGRFTISADTSKNTAYLQMNSLRAEDTAVYYCARYSTYSSSKWVWGMDYWGQGTLVTVSS VL: DIQMTQSPSSLSASVGDRVTITCRASQSVSSAVAWYQQKPGKAPKLLIYSASSLYSGVPSRFSGSRSGTDFTLTISSLQPEDFATYYCQQSYYDSNPITFGQGTKVEIKR | –
– | 0.52 | G9.1-8m6 Fab (Fab, V domains shown, Purified Fab; also called G9.1-8mut6) VH: EVQLVESGGGLVQPGGSLRLSCAASGFTVSSSSIHWVRQAPGKGLEWVAYIYPYSGYTSYADSVKGRFTISADTSKNTAYLQMNSLRAEDTAVYYCARYSTYSSSSSKWVWGMDYWGQGTLVTVSS VL: DIQMTQSPSSLSASVGDRVTITCRASQSVSSAVAWYQQKPGKAPKLLIYSASSLYSGVPSRFSGSRSGTDFTLTISSLQPEDFATYYCQQSYYDSNPITFGQGTKVEIKR | –
– | 12 | G9.1-8m4 mIgG1 (antibody, V domains shown, Human/mouse hybrid IgG: CH1 and CL human, Fc mouse IgG1; also called G9.1-8mut4) VH: EVQLVESGGGLVQPGGSLRLSCAASGFTVSSSSIHWVRQAPGKGLEWVAYIYPYSGYTSYADSVKGRFTISADTSKNTAYLQMNSLRAEDTAVYYCARYSTYSSSSSSKWVWGMDYWGQGTLVTVSS VL: DIQMTQSPSSLSASVGDRVTITCRASQSVSSAVAWYQQKPGKAPKLLIYSASSLYSGVPSRFSGSRSGTDFTLTISSLQPEDFATYYCQQSYYDSNPITFGQGTKVEIKR | –
binds | – | G9.1-10 Fab (Fab, V domains shown) VH: EVQLVESGGGLVQPGGSLRLSCAASGFTVSYSSIHWVRQAPGKGLEWVASIYSYYGSTYYADSVKGRFTISADTSKNTAYLQMNSLRAEDTAVYYCARGHYQEGRKSGFSYWSPALDYWGQGTLVTVSS VL: DIQMTQSPSSLSASVGDRVTITCRASQSVSSAVAWYQQKPGKAPKLLIYSASSLYSGVPSRFSGSRSGTDFTLTISSLQPEDFATYYCQQWYWYYPVTFGQGTKVEIKR | –
